# Source: patent US8632989B1, “Mutant insulin degrading enzyme and methods of use” (University of Kentucky Research Foundation, priority 2011, dated 2014)
# B1: IDE: Native rat insulin degrading enzyme (SEQ ID NO:1), expressed as hexahistidine fusion protein in Sf9 insect cells (protein, listed as Rattus norvegicus)
# chain: MRNGLVWLLHPALPSTLHSILGARPPPVKRLCGFPKQIYSTMNNPAIQRIEDHIVKSPEDKREYRGLELANGIKVLLISDPTTDKSSAALDVHIGSLSDPPNIPGLSHFCEHMLFLGTKKYPKENEYSQFLSEHAGSSNAFTSGEHTNYYFDVSHEHLEGALDRFAQFFLCPLFDASCKDREVNAVDSEHEKNVMNDAWRLFQLEKATGNPKHPFSKFGTGNKYTLETRPNQEGIDVREELLKFHSTYYSSNLMAICVLGRESLDDLTNLVVKLFSEVENKNVPLPEFPEHPFQEEHLKQLYKIVPIKDIRNLYVTFPIPDLQQYYKSNPGHYLGHLIGHEGPGSLLSELKSKGWVNTLVGGQKEGARGFMFFIINVDLTEEGLLHVEDIILHMFQYIQKLRAEGPQEWVFQECKDLNAVAFRFKDKERPRGYTSKIAGKLHYYPLNGVLTAEYLLEEFRPDLIDMVLDKLRPENVRVAIVSKSFEGKTDRTEQWYGTQYKQEAIPEDVIQKWQNADLNGKFKLPTKNEFIPTNFEILALEKDATPYPALIKDTAMSKLWFKQDDKFFLPKACLNFEFFSPFAYVDPLHCNMAYLYLELLKDSLNEYAYAAELAGLSYDLQNTIYGMYLSVKGYNDKQPILLKKITEKMATFEIDKKRFEIIKEAYMRSLNNFRAEQPHQHAMYYLRLLMTEVAWTKDELKEALDDVTLPRLKAFIPQLLSRLHIEALLHGNITKQAALGVMQMVEDTLIEHAHTKPLLPSQLVRYREVQLPDRGWFVYQRRNEVHNNCGIEIYYQTDMQSTSENMFLELFCQIISEPCFNTLRTKEQLGYIVFSGPRRANGIQGLRFIIQSEKPPHYLESRVEAFLITMEKAIEDMTEEAFQKHIQALAIRRLDKPKKLSAECAKYWGEIISQQYNYDRDNIEVAYLKTLSKDDIIKFYKEMLAVDAPRRHKVSVHVLAREMDSCPVVGEFPSQNDINLSEAPPLPQPEVIHNMTEFKRGLPLFPLVKPHINFMAAKL
# modifications: hexahistidine tag; wild-type Insulin Degrading Enzyme (IDE) from rat
# Key:
# [1] = tested on: Abz-GGFLRKHGQ-EDDnp; experiment: Enzyme activity assay, kinetics of IDE and ATP binding site mutants with fluorogenic substrate; type: biochemical; details: rat IDE, Abz-GGFLRKHGQ-EDDnp as substrate
# Description: Reactions were conducted in 50 mM Tris-HCl, pH 7.4.
# IDE activity was determined by measuring the increase in fluorescence that occurs when the enzyme cleaves the internally quenched fluorogenic substrate Abz-[…]-EDDnp (SEQ ID NO:3) at the R—K bond (Song et al., Journal of Biologial Chemistry 276, 1152-1155 (2001)). The reaction was followed on a SpectraMax Gemini XS fluorescence plate reader using an excitation and emission wavelengths of 318 nm and 419 nm, respectively. Initial velocities were determined using SoftMax Pro 4.0 and kinetic constants calculated using GraphPad Prism 4.0. ATPase activity was measured by following Pi release with acid-molybdate as described by Harder et al. (Harder et al., Biochemical Journal 298 (Pt 2), 395-401 (1994)).
# [2] = tested on: Saccharomyces cerevisiae; experiment: IDE activity assay in yeast, spot halo assay for a-factor production; type: cell-based; details: spot halo assay on RC757 lawn
# Description: Panel A depicts immunoblot of yeast-expressed IDE and IDE^K898A,K899A,S901A. Equivalent percentage amounts of total cellular extracts from yeast containing an empty expression vector or plasmids encoding IDE or the IDE^K898A,K899A,S901A mutant were analyzed by SDS-PAGE and immunoblotting using an IDE-specific antibody. […] An excess of MATa yeast were mixed with decreasing numbers of MATa cells deficient for Axl1p and Step 23p that were transformed with either an empty expression vector or a vector encoding IDE or IDE^K898A,K899A,S901A as indicated. Mating, which leads to colony growth, is dependent on production of mature a-factor pheromone by plasmid-encoded IDE. […] Concentrated samples of a-factor recovered from yeast bearing the indicated expression vector were spotted at the indicated dilutions on a lawn of RC757 MATa cells, which undergo growth arrest upon exposure to a-factor pheromone. […]
# The assays take advantage of the ability of IDE, in lieu of the yeast M16 metallopeptidases Axl1p and Step 23p, to participate in the proteolytic maturation of yeast a-factor mating pheromone. […] Growth of diploid colonies, indicative of mating, was scored 3 days after incubation of plates at 30° C. […] Results of mating tests and halo assays were recorded by scanning plates with a Microtek flatbed scanner and importing digitized images into Photoshop and PowerPoint.
# [3] = Fluorescence measurements of TNP-ATP binding, wild type rIDE and distal site mutants; details: hyperbolic one site binding fit, 20 °C
# Description: The fluorescence increase on binding of (2,4,6-trinitrophenyl)ATP (TNP-ATP) is plotted for the indicated IDE constructs as a function of ligand concentration. Data were fit to a hyperbolic one site binding mechanism.
# Fluorescence emission spectra of 10 μM TNP-ATP in […] Tris-HCl, pH7.4, was measured in the presence of 1.5 μM of each wild type IDE and the indicated IDE distal mutants. Fluorescence spectra were recorded with a λexc=403 nm on a Perkin-Elmer LS55 Luminescence Spectrometer.
# Fluorescence measurements of TNP-ATP binding were performed on a Perkin-Elmer LS55 Luminescence Spectrometer. Titrations were monitored at an excitation wavelength of 403 nm and emission wavelength of 547 nm. The temperature of the sample was maintained at 20±0.1° C. by circulating thermostatically controlled water through the cuvette holder. Assays were conducted in 200 μL reaction mixtures containing 50 mM Tris-HCl, pH, 7.4, 10 μM Abz-[…]-EDDnp (SEQ ID NO:3) as substrate, and 0.5 μg wild type rIDE, 2.3 μg rIDE-V3605, 2.0 μg rIDE-I3745 or 1.62 μg rIDEY609F and the indicated concentration of ATP. The fluorescence of TNP-ATP was subtracted from the total fluorescence of enzyme+TNP-ATP to yield specific fluorescence enhancement (ΔF).
molecule,measurement,setting,value
B1,Hill coefficient,[1],2.1 ± 0.3
same,Km,[1],9.6 ± 0.7 mM
same,kcat,[1],0.0867 ± 0.0033 s⁻¹
same,Vmax,"[1]; 50 mM Tris-HCl, pH 7.4",47.2 ± 1.7 nmol/min/mg
same,production of a-factor by yeast,[2],greater production of a-factor
same,Kd,[3],1 ± 0.1 µM
